Reference: patent publication US20100280227A1

Target: human BAFF (residues 82-285) (human) (UniProt Q9Y275)
Assay: BJAB cell competitive binding assay: soluble BR3-Fc keeps biotin-BAFF from BR3 on the cells

human BAFF (residues 82-285) (human), sequence (Q9Y275 82-285 limits assumed): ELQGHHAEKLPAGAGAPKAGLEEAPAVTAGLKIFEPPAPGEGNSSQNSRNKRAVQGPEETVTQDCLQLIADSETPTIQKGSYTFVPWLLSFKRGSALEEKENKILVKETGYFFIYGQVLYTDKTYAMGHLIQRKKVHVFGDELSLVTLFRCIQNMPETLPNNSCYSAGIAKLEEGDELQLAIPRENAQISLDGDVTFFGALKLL

hBR3Fc (Fc fusion) gave an IC50 of 3.22 nM.
